Earlier results as cited in patent US20240156960A1 (priority 2020, published 2024).
Residue numbers refer to the chain shown, from its start.

B1: mAb-94 (antibody, listed as Homo sapiens, V domains shown)
VH: QVQLVQSGAEVKKPGSSVKVSCKASGGMFTDYAISWVRQAPGQRLEWMGGIMPGLGSPAYAQIFRDRATISADVSTSTAYLELTSLKPEDTAVYYCARDPSILNTGNHHWYDLDIWGQGTTVTVSS
VL: DIQLTQSPLSLPVGLGQSASISCRSSQRVVHTDGNTYLNWYHQRPGQSPRRLIYKVSNRDSGVPDRFSGSGSGTDFTLRISRVEAEDVGVYYCMQSTDWPRTFGQGTKLEIK
B2: mAb-87 (antibody, listed as Homo sapiens, V domains shown)
VH: QVQLQESGPGLVKPSETLSLTCTVSGGSMNHYYWSWIRQPPGKGLEGIGYTYYSGSTNYNPSLKSRVTISVDASKNQFSLRLSSVTAADTAVYYCARGSQIDLRGGLGATFFDYWGQGTLVTVSS
VL: QSVLTQPASVSGSPGQSITISCTGTSSDVGAYNYVSWYQQHPGKAPKLTVYDVRNRPSGVSNRFSGSKSGNTASLTISGLQAEDEAHYYCSSYTSTNTVFGGGTKLTVL
B3: C113 (antibody, listed as Homo sapiens, V domains shown)
VH: QVQLVESGGGVVQPGRSLRLSCAASGFTFSNFGMHWVRQAPGKGLEWVAVIWYDGSNKYYADSVKGRFTISRDNSKNTLYLQMNSLRAEDTAVYYCARGVNPDDILTGVDAFDIWGQGTMVTVSS
VL: DIQMTQSPSTLSASVGDRVTITCRASQSMSSWLAWYQQKPGNAPKLLIYKASSLESGVPSRFSGSGSGTEFTLTISSLQPDDFATYYCQQHNSSPLTFGGGTKVEIK
B4: mBG67 (antibody, listed as Mus musculus, V domains shown)
VH: EVQLVESGGGLVQPGGSLKLSCAASGFTFSNYGMSWVRQTPDKRLELVATINRNGGSTYYLDSVKVRFTISRDNAKSTLFLQLSSLKSDDTAMYYCARIYDFDEDYFDVWGAGTTVTVSS
VL: QIVLTQSPAIMSASLGERVTMTCTASSSVSSSYLHWYQQKPGSSPKLWIYSTSNLASGVPARFSGSGSGTSYSLTISSMEAEDAATYYCLQYHRSPWTFGGGTKLEIK
B5: mBG21 (antibody, listed as Mus musculus, V domains shown)
VH: QIQLVQSGPELKKPGETVKISCKASGYTFTDYSMHWVKQAPGKGSKWMGWINTETGEPTYADDFKGRFAFSLETSASTAYLQINNLKNEDTATYFCALRRWGQGTLVTVSS
VL: IVMTQTPKFLLVSAGDRVTITCKASQSVSNDVAWFQQKPGQSPKKLLIYFASNRYTGVPDRFTGSGYGTDFTFTITTVQAEDLAVYFCQQDYSSPWTFGGGTKLEIK
B6: mBG57 (antibody, listed as Mus musculus, V domains shown)
VH: B5 VH with S111A
VL: DIVMTQAAPSEPVTPGESVSISCGSSKSLLHSNDNTYLYWFLQRPGQSPQLLIYRMSNLASGVPDRFTGSGSGTAFTLRISRVEAEDVGVYYCMQHLENPLGVRWRHQAGNQT
B7: mBG22 (antibody, listed as Mus musculus, V domains shown)
VH: B5 VH with S111A
VL: IVMTQTPKFLLVSAGDRVTITCKASQSVSNDVAWFQQKPGQSPKLLIYFASNRYTGVPDRFTGSGYGTDFTFTITTVQAEDLAVYFCQQDYSSPWTFGGGTKLEIK
B8: mAb-88 (antibody, listed as Homo sapiens, V domains shown)
VH: QVQLVESGAEVKKPGSSVKISCKISGDTFSTNAISWLRQAPGREPEWMGGIVPLVGPASYAQRPQGRLTITADEFTNTAYLELNSLRSEDTATYYCARDSDPYTATRRHNHYWYAMDVWGQGTTVTVSS
VL: DIRLTQTPLSLPVTLGQPASISCRSSQIAMHSDGNTYLSWFHQRPGQPPRRLIYKISNRDSGVPDRFSGSGSGTDFTLKISRVEAEDIGTFYCMQGTDWPRTFGQGTKVDIK

How the values were obtained:
SARS-CoV2 S = SARS-CoV2 S (Severe acute respiratory syndrome coronavirus 2, UniProt P0DTC2); conditions: Protein + Epitope S, Unk
OC43 S = OC43 S (Human coronavirus OC43, UniProt P36334); conditions: Protein + Epitope S, Unk
OC43 S, sequence (P36334 14-1353): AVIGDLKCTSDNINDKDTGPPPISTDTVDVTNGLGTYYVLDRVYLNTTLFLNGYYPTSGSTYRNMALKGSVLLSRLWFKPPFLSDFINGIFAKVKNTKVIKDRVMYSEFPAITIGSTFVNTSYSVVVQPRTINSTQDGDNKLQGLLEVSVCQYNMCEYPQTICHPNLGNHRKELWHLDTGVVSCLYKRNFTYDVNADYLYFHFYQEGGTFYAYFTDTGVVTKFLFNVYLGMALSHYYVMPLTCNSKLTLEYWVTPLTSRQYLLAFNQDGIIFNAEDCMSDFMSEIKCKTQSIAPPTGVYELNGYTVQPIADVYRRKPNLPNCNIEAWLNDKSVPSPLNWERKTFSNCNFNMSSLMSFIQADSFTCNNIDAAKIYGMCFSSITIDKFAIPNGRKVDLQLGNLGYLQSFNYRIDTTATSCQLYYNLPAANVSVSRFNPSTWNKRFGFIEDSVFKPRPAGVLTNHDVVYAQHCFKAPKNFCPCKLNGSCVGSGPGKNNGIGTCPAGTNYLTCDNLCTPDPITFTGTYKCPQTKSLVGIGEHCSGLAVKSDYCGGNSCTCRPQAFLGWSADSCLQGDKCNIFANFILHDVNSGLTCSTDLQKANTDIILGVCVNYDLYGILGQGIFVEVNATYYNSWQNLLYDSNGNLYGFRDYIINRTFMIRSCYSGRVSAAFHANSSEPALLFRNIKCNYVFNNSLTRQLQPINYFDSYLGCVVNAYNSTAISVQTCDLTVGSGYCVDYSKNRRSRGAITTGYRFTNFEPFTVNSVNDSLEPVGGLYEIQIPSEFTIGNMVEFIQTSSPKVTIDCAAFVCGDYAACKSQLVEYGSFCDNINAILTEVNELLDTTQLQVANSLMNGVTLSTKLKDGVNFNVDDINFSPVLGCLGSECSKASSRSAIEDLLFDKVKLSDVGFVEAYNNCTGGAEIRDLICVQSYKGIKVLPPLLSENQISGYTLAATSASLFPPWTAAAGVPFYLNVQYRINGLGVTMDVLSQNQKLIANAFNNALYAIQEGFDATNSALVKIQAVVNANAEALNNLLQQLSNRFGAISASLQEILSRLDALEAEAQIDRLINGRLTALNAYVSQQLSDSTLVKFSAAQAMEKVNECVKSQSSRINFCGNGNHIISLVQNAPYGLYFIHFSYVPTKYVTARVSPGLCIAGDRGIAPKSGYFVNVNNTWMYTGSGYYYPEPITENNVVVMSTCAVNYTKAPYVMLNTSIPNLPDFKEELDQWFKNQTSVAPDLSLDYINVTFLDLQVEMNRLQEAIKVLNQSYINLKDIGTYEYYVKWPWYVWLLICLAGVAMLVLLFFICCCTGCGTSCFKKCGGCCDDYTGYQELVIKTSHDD

NL63 S = NL63 S (Human coronavirus NL63, UniProt Q6Q1S2); conditions: Protein + Epitope S, Unk
NL63 S, sequence (Q6Q1S2 19-1356): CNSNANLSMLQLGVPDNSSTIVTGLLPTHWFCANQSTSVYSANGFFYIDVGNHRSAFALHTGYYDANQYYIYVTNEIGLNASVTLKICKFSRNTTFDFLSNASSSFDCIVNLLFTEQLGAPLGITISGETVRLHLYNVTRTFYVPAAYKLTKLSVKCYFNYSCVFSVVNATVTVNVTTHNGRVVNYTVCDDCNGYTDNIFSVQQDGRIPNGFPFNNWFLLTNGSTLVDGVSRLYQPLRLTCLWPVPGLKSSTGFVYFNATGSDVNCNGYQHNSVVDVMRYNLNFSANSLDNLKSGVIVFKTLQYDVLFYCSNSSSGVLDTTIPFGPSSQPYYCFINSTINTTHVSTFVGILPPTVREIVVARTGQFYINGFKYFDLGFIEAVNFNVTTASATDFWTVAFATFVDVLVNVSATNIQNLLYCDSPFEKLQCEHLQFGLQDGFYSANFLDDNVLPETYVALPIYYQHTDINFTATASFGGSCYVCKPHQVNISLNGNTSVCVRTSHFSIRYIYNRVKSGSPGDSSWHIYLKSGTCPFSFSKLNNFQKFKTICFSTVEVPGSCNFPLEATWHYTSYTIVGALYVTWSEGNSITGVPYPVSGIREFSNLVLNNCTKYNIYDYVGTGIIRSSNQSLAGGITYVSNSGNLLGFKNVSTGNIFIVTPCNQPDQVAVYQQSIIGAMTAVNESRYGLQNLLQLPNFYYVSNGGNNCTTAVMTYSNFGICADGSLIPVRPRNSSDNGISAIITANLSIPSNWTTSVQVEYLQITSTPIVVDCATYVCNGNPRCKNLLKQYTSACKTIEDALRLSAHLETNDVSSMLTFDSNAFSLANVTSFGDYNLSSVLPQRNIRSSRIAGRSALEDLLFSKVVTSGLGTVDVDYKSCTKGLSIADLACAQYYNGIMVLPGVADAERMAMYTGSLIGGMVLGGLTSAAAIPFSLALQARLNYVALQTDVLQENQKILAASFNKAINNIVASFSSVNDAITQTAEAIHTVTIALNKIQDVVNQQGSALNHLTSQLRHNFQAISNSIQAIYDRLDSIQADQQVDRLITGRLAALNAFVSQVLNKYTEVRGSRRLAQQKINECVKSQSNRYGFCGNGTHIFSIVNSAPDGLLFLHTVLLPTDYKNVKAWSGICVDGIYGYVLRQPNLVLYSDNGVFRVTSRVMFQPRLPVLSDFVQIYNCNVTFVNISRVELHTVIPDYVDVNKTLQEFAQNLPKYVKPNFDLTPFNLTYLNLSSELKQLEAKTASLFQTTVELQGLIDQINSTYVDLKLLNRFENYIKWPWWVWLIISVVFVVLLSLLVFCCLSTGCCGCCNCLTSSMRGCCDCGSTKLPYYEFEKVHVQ

SARS-CoV1 S = SARS-CoV1 S (Severe acute respiratory syndrome coronavirus, UniProt P59594)
SARS-CoV2 S; RBD = SARS-CoV2 S; RBD (Severe acute respiratory syndrome coronavirus 2, UniProt P0DTC2); conditions: epitope S
[1] = tested on: SARS-CoV2, SARS-CoV1, NL63, 229E, HKU1, OC43

Row | Molecule | Binds to (SARS-CoV2 S) | Doesn't Bind to (OC43 S) | Doesn't Bind to (NL63 S) | Doesn't Bind to (SARS-CoV1 S) | Binds to [1] | also measured
1 | B1 | SARS-CoV2 | OC43, | NL63, | CoV1 |  | 
2 | B2 | SARS-CoV2 | OC43, | NL63, | CoV1 |  | 
3 | B3 |  |  |  |  |  | Binds to (SARS-CoV2 S; RBD): SARS-CoV2; Not Neutralising Vs (SARS-CoV1): SARS-CoV1,
4 | B4 |  |  |  |  | NL63 | 
5 | B5 |  |  |  |  | NL63 | 
6 | B6 |  |  |  |  | NL63 | 
7 | B7 |  |  |  |  | NL63 | 
8 | B8 | SARS-CoV2 | OC43, | NL63, | CoV1 |  | 
